The results in this text go back to paper PMC4997581.

In the assay the target is Cyclin B1 (human (endogenous in 293T and HFF)), P14635. Nature of the assay: co-IP. Conditions: remark: other sources report otherwise.
Sequence of Cyclin B1 (human (endogenous in 293T and HFF)), P14635 (P14635 whole entry): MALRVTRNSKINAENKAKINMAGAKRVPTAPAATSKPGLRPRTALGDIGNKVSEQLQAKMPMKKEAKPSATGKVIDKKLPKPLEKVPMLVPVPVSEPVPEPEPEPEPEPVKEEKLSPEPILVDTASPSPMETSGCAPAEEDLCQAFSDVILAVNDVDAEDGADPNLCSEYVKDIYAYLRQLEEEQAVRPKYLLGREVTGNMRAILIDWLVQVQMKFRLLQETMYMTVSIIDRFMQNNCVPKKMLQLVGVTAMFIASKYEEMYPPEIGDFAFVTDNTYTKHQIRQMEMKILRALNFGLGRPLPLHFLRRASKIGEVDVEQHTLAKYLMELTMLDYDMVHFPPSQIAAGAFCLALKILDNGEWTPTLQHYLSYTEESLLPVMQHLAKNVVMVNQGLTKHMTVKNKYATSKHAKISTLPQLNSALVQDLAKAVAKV

B1: HCMV protein kinase pUL97, Flag-tagged (pUL97-Flag), P16788 1-707 (natural protein)
chain: MSSALRSRARSASLGTTTQGWDPPPLRRPSRARRRQWMREAAQAAAQAAVQAAQAAAAQVAQAHVDENEVVDLMADEAGGGVTTLTTLSSVSTTTVLGHATFSACVRSDVMRDGEKEDAASDKENLRRPVVPSTSSRGSAASGDGYHGLRCRETSAMWSFEYDRDGDVTSVRRALFTGGSDPSDSVSGVRGGRKRPLRPPLVSLARTPLCRRRVGGVDAVLEENDVELRAESQDSAVASGPGRIPQPLSGSSGEESATAVEADSTSHDDVHCTCSNDQIITTSIRGLTCDPRMFLRLTHPELCELSISYLLVYVPKEDDFCHKICYAVDMSDESYRLGQGSFGEVWPLDRYRVVKVARKHSETVLTVWMSGLIRTRAAGEQQQPPSLVGTGVHRGLLTATGCCLLHNVTVHRRFHTDMFHHDQWKLACIDSYRRAFCTLADAIKFLNHQCRVCHFDITPMNVLIDVNPHNPSEIVRAALCDYSLSEPYPDYNERCVAVFQETGTARRIPNCSHRLRECYHPAFRPMPLQKLLICDPHARFPVAGLRRYCMSELSALGNVLGFCLMRLLDRRGLDEVRMGTEALLFKHAGAACRALENGKLTHCSDACLLILAAQMSYGACLLGEHGAALVSHTLRFVEAKMSSCRVRAFRRFYHECSQTMLHEYVRKNVERLLATSDGLYLYNAFRRTTSIICEEDLDGDCRQLFPE
In turn, B1 showed a pUL97 co-IP Western blot signal relative to cyclin B1 of 100%.

B2: pUL97 stably expressed in transduced HFFs, P16788 1-707 (natural protein)
chain: MSSALRSRARSASLGTTTQGWDPPPLRRPSRARRRQWMREAAQAAAQAAVQAAQAAAAQVAQAHVDENEVVDLMADEAGGGVTTLTTLSSVSTTTVLGHATFSACVRSDVMRDGEKEDAASDKENLRRPVVPSTSSRGSAASGDGYHGLRCRETSAMWSFEYDRDGDVTSVRRALFTGGSDPSDSVSGVRGGRKRPLRPPLVSLARTPLCRRRVGGVDAVLEENDVELRAESQDSAVASGPGRIPQPLSGSSGEESATAVEADSTSHDDVHCTCSNDQIITTSIRGLTCDPRMFLRLTHPELCELSISYLLVYVPKEDDFCHKICYAVDMSDESYRLGQGSFGEVWPLDRYRVVKVARKHSETVLTVWMSGLIRTRAAGEQQQPPSLVGTGVHRGLLTATGCCLLHNVTVHRRFHTDMFHHDQWKLACIDSYRRAFCTLADAIKFLNHQCRVCHFDITPMNVLIDVNPHNPSEIVRAALCDYSLSEPYPDYNERCVAVFQETGTARRIPNCSHRLRECYHPAFRPMPLQKLLICDPHARFPVAGLRRYCMSELSALGNVLGFCLMRLLDRRGLDEVRMGTEALLFKHAGAACRALENGKLTHCSDACLLILAAQMSYGACLLGEHGAALVSHTLRFVEAKMSSCRVRAFRRFYHECSQTMLHEYVRKNVERLLATSDGLYLYNAFRRTTSIICEEDLDGDCRQLFPE
In the case of B2, the pUL97 co-IP Western blot signal relative to cyclin B1 was determined as 100%.
